Test results as given in article PMC6426777 (Frontiers in Immunology, 2019).

Target: T1, recombinant wild-type C1q (human, UniProt P02745 23-245; P02746 28-253; P02747 29-245)
T1 construct: C1q A chain, human; C1q B chain, human; C1q C chain, human; Hexamer of A-B-C heterotrimers (18 chains); also called C1qWT; WT; source: purified from culture supernatant (IgG-ovalbumin aggregates, anti-FLAG M2 column); copies: 6 + 6 + 6
Experiment: SPR; Biacore 3000, 25°C; C1q variants immobilised on CM5 chips by amine coupling; partners injected at 20 μl/min in 50 mM Tris-HCl, 150 mM NaCl, 2 mM CaCl2, 0.005% surfactant P20, pH 7.4; BSA reference surface; global fit to 1:1 Langmuir model; apparent KD = kd/ka
Conditions: both partners purified

T1 sequence (P02745 23-245, chain 1 of 3): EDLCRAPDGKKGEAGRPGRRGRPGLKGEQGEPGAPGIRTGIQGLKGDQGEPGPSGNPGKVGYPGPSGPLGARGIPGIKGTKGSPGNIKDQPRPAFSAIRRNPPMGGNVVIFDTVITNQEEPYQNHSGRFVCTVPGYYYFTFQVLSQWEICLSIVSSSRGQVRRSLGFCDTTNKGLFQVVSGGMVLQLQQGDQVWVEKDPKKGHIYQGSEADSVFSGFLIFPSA
T1 sequence (P02746 28-253, chain 2 of 3): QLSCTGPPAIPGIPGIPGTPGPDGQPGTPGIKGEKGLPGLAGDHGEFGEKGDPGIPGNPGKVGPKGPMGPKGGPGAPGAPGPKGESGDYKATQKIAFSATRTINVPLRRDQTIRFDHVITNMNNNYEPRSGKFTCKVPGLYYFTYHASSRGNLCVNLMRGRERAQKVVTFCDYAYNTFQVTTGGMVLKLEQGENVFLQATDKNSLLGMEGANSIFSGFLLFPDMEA
T1 sequence (P02747 29-245, chain 3 of 3): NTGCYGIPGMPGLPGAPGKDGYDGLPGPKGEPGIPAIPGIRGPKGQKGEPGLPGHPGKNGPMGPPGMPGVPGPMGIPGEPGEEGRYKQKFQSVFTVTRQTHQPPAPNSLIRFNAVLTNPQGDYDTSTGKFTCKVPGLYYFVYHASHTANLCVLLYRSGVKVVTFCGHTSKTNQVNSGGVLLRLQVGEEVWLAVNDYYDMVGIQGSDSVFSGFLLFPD

Kd: 5.04 nM | koff: 0.00234 s⁻¹ | kon: 463000 M⁻¹ s⁻¹
B1: recombinant human MASP-2 dimer (enzyme, UniProt O00187 16-686, looked up)
chain: TPLGPKWPEPVFGRLASPGFPGEYANDQERRWTLTAPPGYRLRLYFTHFDLELSHLCEYDFVKLSSGAKVLATLCGQESTDTERAPGKDTFYSLGSSLDITFRSDYSNEKPFTGFEAFYAAEDIDECQVAPGEAPTCDHHCHNHLGGFYCSCRAGYVLHRNKRTCSALCSGQVFTQRSGELSSPEYPRPYPKLSSCTYSISLEEGFSVILDFVESFDVETHPETLCPYDFLKIQTDREEHGPFCGKTLPHRIETKSNTVTITFVTDESGDHTGWKIHYTSTAQPCPYPMAPPNGHVSPVQAKYILKDSFSIFCETGYELLQGHLPLKSFTAVCQKDGSWDRPMPACSIVDCGPPDDLPSGRVEYITGPGVTTYKAVIQYSCEETFYTMKVNDGKYVCEADGFWTSSKGEKSLPVCEPVCGLSARTTGGRIYGGQKAKPGDFPWQVLILGGTTAAGALLYDNWVLTAAHAVYEQKHDASALDIRMGTLKRLSPHYTQAWSEAVFIHEGYTHDAGFDNDIALIKLNNKVVINSNITPICLPRKEAESFMRTDDIGTASGWGLTQRGFLARNLMYVDIPIVDHQKCTAAYEKPPYPRGSVTANMLCAGLESGGKDSCRGDSGGALVFLDSETERWFVGGIVSWGSMNCGEAGQYGVYTKVINYIPWIENIISDF
